According to article PMC5673899, “Structural basis for receptor recognition of pollen tube attraction peptides” (Nature Communications, 2017):
Entries after “also recorded” stand apart in the source; their conditions may differ.

System: prk6 pollen tubes transformed with PRK6 ΔN239I240
Test: Wavy assay, prk6 pollen tubes transformed with ΔN239I240 PRK6
Format: cell-based, Arabidopsis
Conditions: 250 nM wild-type AtLURE1.2 in medium
Protocol: Attraction activities of mutant AtLURE1.2 peptides were examined for semi-in-vivo pollen tubes growing through cut, pollinated pistils by gelatin-beads assay and wavy assay, [20]. For the gelatin-beads assay, pollen tubes were grown on solid pollen germination medium poured into a mold made with 1-mm thick silicone rubber and cover glasses. After hand-pollination, the topside cover glass was removed and the medium was covered with hydrated silicone oil (KF-96–100CS; Shin-Etsu). Attraction of pollen tubes toward the peptide was evaluated using AtLURE1 peptide containing gelatine beads under an inverted microscope (IX71, Olympus) equipped with a micro-manipulator (Narishige). For the AtLURE1-responsive wavy assay, the purified AtLURE1.2 peptide was added to solid pollen germination medium, which was melted at 70 °C and then cooled to a certain degree. The mixture was mixed by vortexing and poured into the mold. Pollen tubes of each genotype were grown through cut styles, as mentioned above. Each peptide (25 μM in 10 mM Bis-Tris (pH 6.0) and 100 mM NaCl) was diluted to 250 nM by cultivation medium in both assays. […]
pollen tubes. Fluorescence is from mRuby2 fused to the C-terminal of PRK6 receptors, showing that all of mutant PRK6 receptors localize normally to the plasma membrane of the pollen tube tip. […]

B1: AtLURE1.2: mature form of AtLURE1.2 (residues 20–90), defensin-like cysteine-rich peptide expressed in insect cells (protein)
chain: TLINGSSDEERTYSFSPTTSPFDPRSLNQELKIGRIGYCFDCARACMRRGKYIRTCSFERKLCRCSISDIK
modifications: left off: His6, N-terminal, cleaved | SUMO, N-terminal, cleaved
notes: mature form of AtLURE1.2 (residues 20–90), defensin-like cysteine-rich peptide expressed in insect cells
wavy and branched pollen tube behavior: branched behavior is not observed; also recorded: greatly compromised
